Measurements from patent publication US20160251438A1.
Each block holds one binder with its values, some of them ahead of it.

Legend:
[1] = molecular target: GARP / TGF-β1 Y336Q complex (human) (UniProt Q14392); assay: flow cytometry titration on transfected 293T cells; grade of Reduced avidity read by footnote 3
[2] = molecular target: GARP / TGF-β1 Y336Q complex (human) (UniProt Q14392); assay: FACS titration on transfected 293T; EC50 mutant / EC50 WT [cont.) B]
[3] = molecular target: GARP / TGF-β1 Y336Q complex (human) (UniProt Q14392); assay: flow cytometry on transfected 293T cells, 5 ug/ml; grade of Loss of binding read by footnote 2
[4] = molecular target: GARP / TGF-β1 Y336Q complex (human) (UniProt Q14392); assay: FACS titration on transfected 293T; EC50 mutant / EC50 WT

Chain of GARP / TGF-β1 Y336Q complex (human) (Q14392 20-662, chain 1 of 2): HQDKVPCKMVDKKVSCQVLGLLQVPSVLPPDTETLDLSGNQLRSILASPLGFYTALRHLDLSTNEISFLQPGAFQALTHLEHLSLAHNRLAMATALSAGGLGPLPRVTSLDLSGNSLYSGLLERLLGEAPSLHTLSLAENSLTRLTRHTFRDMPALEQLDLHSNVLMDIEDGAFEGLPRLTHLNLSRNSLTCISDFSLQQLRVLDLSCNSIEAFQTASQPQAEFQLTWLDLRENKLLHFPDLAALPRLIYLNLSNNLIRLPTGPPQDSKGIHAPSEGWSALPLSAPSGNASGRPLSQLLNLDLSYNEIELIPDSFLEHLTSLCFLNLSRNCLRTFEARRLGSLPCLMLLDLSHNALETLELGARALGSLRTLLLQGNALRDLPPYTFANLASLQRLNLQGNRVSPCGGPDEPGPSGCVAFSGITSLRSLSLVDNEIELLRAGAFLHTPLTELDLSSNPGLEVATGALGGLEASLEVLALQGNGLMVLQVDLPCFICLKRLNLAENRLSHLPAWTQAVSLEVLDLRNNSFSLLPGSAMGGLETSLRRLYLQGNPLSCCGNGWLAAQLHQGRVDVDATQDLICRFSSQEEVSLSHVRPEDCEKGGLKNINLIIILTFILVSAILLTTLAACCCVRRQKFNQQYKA
Chain of GARP / TGF-β1 Y336Q complex (human) (P01137 30-390 Y336Q, chain 2 of 2, further chain): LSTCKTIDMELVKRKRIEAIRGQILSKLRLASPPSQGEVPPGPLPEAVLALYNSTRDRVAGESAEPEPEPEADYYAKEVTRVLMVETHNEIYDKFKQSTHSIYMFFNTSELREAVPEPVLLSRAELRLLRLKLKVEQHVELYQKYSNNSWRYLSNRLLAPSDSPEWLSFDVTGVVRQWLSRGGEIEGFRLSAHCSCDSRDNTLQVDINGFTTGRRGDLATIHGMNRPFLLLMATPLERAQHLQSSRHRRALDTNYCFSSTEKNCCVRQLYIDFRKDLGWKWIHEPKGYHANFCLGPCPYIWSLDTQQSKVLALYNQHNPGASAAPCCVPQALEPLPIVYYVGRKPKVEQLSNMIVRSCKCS

ratio of EC50 (mutant vs WT) [1]: < 2 | Ratio of EC50 (mutant / wt) [2]: 1.1 | residual binding on mutant by comparison to WT [3]: > 50%
B1: LHG-10 (antibody, human IgG1, V domains shown)
VH: EVQLVQPGAELRNSGASVKVSCKASGYRFTSYYIDWVRQAPGQGLEWMGRIDPEDGGTKYAQKFQGRVTFTADTSTSTAYVELSSLRSEDTAVYYCARNEWETVVVGDLMYEYEYWGQGTQVTVSS
VL: DIQMTQSPTSLSASLGDRVTITCQASQSISSYLAWYQQKPGQAPKLLIYGASRLQTGVPSRFSGSGSGTSFTLTISGLEAEDAGTYYCQQYDSLPVTFGQGTKVELK

residual binding on mutant by comparison to WT [3]: > 50% | Ratio of EC50 (mutant / wt) [4]: 0.9
B2: MHGARP8 (antibody, V domains shown)
VH: QVQLKESGPGLVAPSQSLSITCTVSGFSLTGYGINWVRQPPGKGLEWLGMIWSDGSTDYNSVLTSRLRISKDNSNSQVFLKMNSLQVDDTARYYCARDRNYYDYDGAMDYWGQGTSVTVSS
VL: DIQVTQSSSYLSVSLGDRVTITCKASDHIKNWLAWYQQKPGIAPRLLVSGATSLEAGVPSRFSGSGSGKNFTLSITSLQTEDVATYYCQQYWSTPWTFGGGTTLEIR
